Measurements published in patent US20080146500A1, “Selective Vpac2 Receptor Peptide Agonists” (priority 2004, published 2008).
Where two headings read alike, the source gives them in different places. Ends that are not written are not given here.

Tests used:
human VPAC2 = molecular target: T1, human VPAC2 (Homo sapiens, UniProt P41587); experiment: Filter binding assay, membranes from stable VPAC2 cell line, 125I-labeled VIP tracer; conditions: read-out: Human receptor binding (IC50; nM) VPAC2
T1 construct: expressed in transfected cells
T1 sequence (P41587 24-438): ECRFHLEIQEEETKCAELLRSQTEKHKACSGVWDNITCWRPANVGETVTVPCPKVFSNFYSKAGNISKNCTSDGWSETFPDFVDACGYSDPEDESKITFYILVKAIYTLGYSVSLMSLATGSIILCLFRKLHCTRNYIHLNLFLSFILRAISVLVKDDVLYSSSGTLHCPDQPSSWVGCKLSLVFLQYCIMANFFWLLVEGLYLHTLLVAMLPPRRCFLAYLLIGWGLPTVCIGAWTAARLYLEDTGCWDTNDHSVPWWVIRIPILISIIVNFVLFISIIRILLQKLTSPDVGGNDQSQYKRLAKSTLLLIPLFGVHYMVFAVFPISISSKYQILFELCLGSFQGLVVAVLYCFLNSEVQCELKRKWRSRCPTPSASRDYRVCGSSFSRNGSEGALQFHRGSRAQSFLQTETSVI
Experimental: (§1) For this assay, the solutions and equipment include:
(§2) Presoak solution: 0.5% Polyethyleneamine in Aqua dest.
(§3) Buffer for flushing filter plates: 25 mM HEPES pH 7.4
(§4) Blocking buffer: 25 mM HEPES pH 7.4; 0.2% protease free BSA
(§5) Assay buffer: 25 mM HEPES pH 7.4; 0.5% protease free BSA
(§6) Dilution and assay plate: PS-Microplate, U form
(§7) Filtration Plate Multiscreen FB Opaque Plate; […] Type B Glasfiber filter
(§8) In order to prepare the filter plates, the presoak solution is aspirated by vacuum filtration. The plates are flushed twice with 200 μL flush buffer. 200 μL blocking buffer is added to the filter plate. The filter plate is then incubated with 200 μL presoak solution for 1 hour at room temperature.
(§9) The assay plate is filled with […] (2.5 μg) suspended in assay buffer, 25 μL compound (agonist) in assay buffer, and 25 μL tracer (about 40000 cpm) in assay buffer. The filled plate is incubated for 1 hour with shaking.
(§10) The transfer from assay plate to filter plate is conducted. The blocking buffer is aspirated by vacuum filtration and washed two times with flush buffer. 90 μL is transferred from the assay plate to the filter plate. The 90 μL transferred from assay plate is aspirated and washed three times with 200 μL flush buffer. The plastic support is removed. It is dried for 1 hour at 60° C. 30 μL Microscint is added. The count is performed.
(§11) Values reported are single results or the mean of two or more independent runs.

human PAC1 = molecular target: T2, human PAC1 (Homo sapiens, UniProt P41586); experiment: Filter binding assay, membranes from cells transiently transfected with human PAC1, 125I-labeled PACAP-27 tracer; conditions: read-out: Human receptor binding (IC50; nM) PAC1
T2 construct: expressed in transfected cells
T2 sequence (P41586 21-468): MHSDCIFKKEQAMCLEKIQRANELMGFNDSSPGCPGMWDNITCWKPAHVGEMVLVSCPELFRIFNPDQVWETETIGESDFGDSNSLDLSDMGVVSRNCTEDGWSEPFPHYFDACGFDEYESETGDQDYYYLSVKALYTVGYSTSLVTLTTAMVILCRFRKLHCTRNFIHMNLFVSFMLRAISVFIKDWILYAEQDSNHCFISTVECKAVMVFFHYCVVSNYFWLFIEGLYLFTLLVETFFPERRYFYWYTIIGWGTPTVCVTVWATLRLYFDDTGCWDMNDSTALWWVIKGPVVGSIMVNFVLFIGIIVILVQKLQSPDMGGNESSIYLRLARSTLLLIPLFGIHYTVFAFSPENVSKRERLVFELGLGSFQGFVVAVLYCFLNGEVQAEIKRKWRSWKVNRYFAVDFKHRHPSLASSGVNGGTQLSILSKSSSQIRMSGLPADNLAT
Experimental: as §1, §2, §3, §4, §5, §6, §7, §8, §9, §10, §11

rat VPAC1 receptor = molecular target: T3, rat VPAC1 receptor (Rattus norvegicus, UniProt P30083); experiment: Rat VPAC1 in vitro potency (cAMP generation, DiscoveRx) in transiently transfected CHO-PO cells; format: cell-based; conditions: CHO-PO cells transiently transfected with rat VPAC1; read-out: rVPAC1 in vitro potency (cAMP generation) EC50
T3 construct: expressed in transfected cells; host or cells: CHO-PO cells, transient
T3 sequence (P30083 31-459): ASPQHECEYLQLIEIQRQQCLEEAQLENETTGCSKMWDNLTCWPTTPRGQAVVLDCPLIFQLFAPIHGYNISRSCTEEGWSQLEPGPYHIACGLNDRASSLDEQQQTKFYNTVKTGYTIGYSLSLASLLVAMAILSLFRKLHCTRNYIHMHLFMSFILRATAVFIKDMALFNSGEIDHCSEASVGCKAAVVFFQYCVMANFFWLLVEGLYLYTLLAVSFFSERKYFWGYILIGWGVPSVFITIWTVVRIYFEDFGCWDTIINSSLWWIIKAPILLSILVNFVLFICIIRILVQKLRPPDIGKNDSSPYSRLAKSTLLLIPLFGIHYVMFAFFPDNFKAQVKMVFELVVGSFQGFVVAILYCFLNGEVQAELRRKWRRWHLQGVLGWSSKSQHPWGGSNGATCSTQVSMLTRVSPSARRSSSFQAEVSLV
Experimental: Rat receptor selectivity is estimated by comparing functional potency (cAMP generation) in CHO-PO cells transiently expressing rat VPAC1 or rat VPAC2 receptors. CHO-PO cells transiently expressing rat VPAC1 or VPAC2, are seeded with 10,000 cells/well three days before the assay. The cells are kept in 200 μL culture medium. […] The stimuli are present for 30 minutes. The assay buffer is then gently removed.

[1] = Rat serum stability at 37 C, remaining active peptide estimated by EC50,4C/EC50,37C in CHO-VPAC2 cAMP assay; conditions: for Estimated serum stability (%): after 24 h in rat serum at 37 C
Experimental: The rat serum is stored at 4° C. until use and is used within two weeks.
On Day 0, two 100 μL aliquots of 10 μM peptide in rat serum are prepared by adding 10 μL peptide stock to 90 μL rat serum for each aliquot. 250 kIU aprotinin/mL is added to one of these aliquots. The aliquot is stored with aprotinin at 4° C. The aliquot is stored without aprotinin at 37° C. The aliquots are incubated for […].
On Day 1, after incubation of the aliquots prepared on day 0 for 24 hours, an incubation buffer containing PBS+1.3 mM CaCl2, 1.2 mM MgCl2, 2 mM glucose, and 0.25 mM IBMX is prepared. A plate with 11 serial 5× dilutions of peptide for the 4° C. and 37° C. aliquot is prepared for each peptide studied. […] The plate(s) are washed with cells twice in incubation buffer. The plates are allowed to hold 50 μL incubation media per well for 15 minutes. 50 μL solution per well is transferred to the cells from the plate prepared with 11 serial 5× dilutions of peptide for the 4° C. and 37° C. aliquot for each peptide studied, using the maximal concentrations that are indicated by the primary screen, in duplicate. This step dilutes the peptide concentration by a factor of two. The cells are incubated at room temperature for 30 minutes. The supernatant is removed. 40 μL/well of the DiscoveRx antibody/extraction buffer is added. The cells are incubated on the shaker (300 rpm) for 1 hour. Normal procedure with the DiscoveRx kit is followed. cAMP standards are included in column 12. EC50 values are determined from the cAMP assay data.

[2] = values >100% may represent release of intact peptide from the PEG conjugate

“C6-HDAVFTEQY(OMe)TOrnLRAibQVAAAibOrnYLQSIOrnOrnGGPSSGAPPPC(PEG60K)-NH2 [Agonist P404]” gave an IC50 (human VPAC2) of 13.1 nM, an IC50 (human PAC1) greater than 25000 nM and an EC50 (rat VPAC1 receptor) of 23.4 nM. The “Estimated serum stability (%)” value [1, 2] was 320.7%.

In the case of “C6-HSDAVFTDNYTOrnLRAibQVAAAibKYLQC(PEG40K)IOrnNOrnGGPSSGAPPPS (HSDAVFTDNYTXLRXQVAAXKYLQCIXNXGGPSSGAPPPS; non-natural residues) [Agonist P373]”, the IC50 (human VPAC2) is reported as 111 nM, the IC50 (human PAC1) is reported as greater than 25000 nM and the EC50 (rat VPAC1 receptor) is reported as 350 nM. The “Estimated serum stability (%)” value [1, 2] was 73.6% and the “Estimated 72 h stability (%)” value ([1]; after 72 h in rat serum at 37 C, values >100% may represent release of intact peptide from the PEG conjugate) was 47.1%.

“C6-HSDAVFTEQY(OMe)TOrnLRAibQVAK(CO(CH2)2SPEG40K)AibOrnYLQSIOrnOrnGGPSSGAPPPS-NH2 (HSDAVFTEQYTXLRXQVAXXXYLQSIXXGGPSSGAPPPS; non-natural residues) [Agonist P432]” showed an IC50 (human VPAC2) of 130 nM, an IC50 (human PAC1) greater than 25000 nM and an EC50 (rat VPAC1 receptor) greater than 100 nM. For the same substance, the “Estimated serum stability (%)” value [1, 2] was 102.1%.

With “P137: PEGylated material obtained from P120 and methoxy-PEG2-MAL-40K (HSDAVFTDNYTRLRKQVAAKKYLQSIKNKRYGGPSSGAPPPC; also: PEGylated with methoxy-PEG2-MAL-40K, site not given here) [Agonist P137]” the IC50 (human VPAC2) was 0.64 nM, the IC50 (human PAC1) was greater than 25000 nM and the EC50 (rat VPAC1 receptor) was 29.7 nM. For the same substance, the “Estimated 72 h stability (%)” value [1] was 52.8%.
